PMC2920259 (Nature structural & molecular biology, 2010)

Molecular target: the molecule itself
Assay: crystal structure

B1: IbpAFic2^H3717A (domain or fragment, Histophilus somni, UniProt Q06277 3482-3797, looked up)
chain: DETANKVNYQDLEDNLNLKGLISLEDDRNANFESNVLKNEKFLDEAREISKKSIPEATVKQMSHLPEFDDILTEGAKKVESRINKAITFRPSVEEFSEIQDLVKTLPKTKVIEDLSTKTNEITEALAATSKTIQRTPELKEQLKTAIEDFLQNSQGKPLTVQMIENLNHGLRPDEGEGRLLYKKENLTKENAVFSSPEAAKIQLAETVDFINRAKNEGIEPSVVGALVYQRLIAYAPFAEGNGRMARVIVNKILLDAGYPAFTKFSDEFEPQIIPQTKASTKSATSSEVVVEFLKELAKKGSKEDNEQNLEKTDRT
B1: binds.
